In the DeepSol protein solubility set:

Assay: soluble on expression in E. coli; label from the status in PepcDB or PDB records

Soluble on expression in E. coli, not soluble:
MGSDKIHHHHHHMSDIDFAKKMSFQRHFSRPKTAESEYAIVRQFESDRGRIINSAAIRRLQQKTQVFPLERNAAVRSRLTHSMEVQQVGRYIAKEILHRLQADERLASLGLADRETPFESLVEMACLMHDIGNPPFGHFGESAINQWFRKLLDSHYLDNESPERVDDCKVPTLRMQQDGLDDLRGQIRQDLSHFEGNAQAIRLVHTLLKLNLTYGQVACILKYTRPAYWHGELPADYNYLMKKPGYYLSEEAFVAKLREELDMGEFHRHPLSYIMEAADDVSYCIADLEDAVEKDILTIEELYDRLRENWGTGAEKDIFAKTIERAYKERERFQWRSHDDQFFMNLRVYTVGQMVPHAALRFIDNLPEIYTGSFNQALLEDDSPQNRLLGIFKHVALKHVFNHHEVEQLELQGDRVIRGLLDIYSPLLDMPYQDFSQLVSADTHKRYPIETRLYHKLSSKHCLAYREAVTELDGVAEPERIIREYYYRARLIQDYISGMTDLYAYDEYRMLMAAD, MGSDKIHHHHHHMSDSKWKYNIIYNMEIEVLTGLHIGGSNEELKIGGTDSPVITTKYLINNVEPCDLPYIPGSSIKGKIRSLLENVDYKGKNGDDIVSKMFGYYPNAGEGIKRLTRLIIRDAFLDDGHIKSAEDARNVIEIKSENKIDPIESKATPRFIERVRRGTKFKGKIILSIYEGDNEEEMIKCLKTGISLLEDSYLGGNGTRGYGSVKITLGEPIKKGIDKYEENIKDNTSNGSEN, MGSDKIHHHHHHMSEDQKRILEQQLWNIANTLRGKMNADEFRDYILGFIFYKYLSEKMEIFANDILKQDKISFREITPKLKQGKEYLEAIREEALEKLGYFLKPEELFSEVAKRGRGSNDEGENFDEAKTNFILEDLQKILINIQLSTMGTDSEEDFDNLFEDMDLNSTKLGKTPDARNAIIAKVLTHLDKIDFKLEDLESDVLGDSYEYLIGQFASGAGKKAGEFYTPQQVSKILAKIVTTEKHKLKSVYDPTCGSGSLLLRVAREVKDVAKFYGQEMNRTTYNLARMNMILHGVHYRKFDIKQEDTLEHPQHMGQQFEAIVANPPFSAQWSANPLHLSDDRFSQYGKLAPASKADYAFVQHMVHHLAENGIMALVLPHGVLFRGGAEQHIRKYLIEQKNYLDAVIGLPGNIFYGTSIPTCILVIKKCREMPDNILFIDASKEFEKVKTQNILREKHIDKIVDTYRSRKEIEKYSHCASLKEIAENDFNLNIPRYVDTFEEEEEIDIQAVMAEIKNLEAKRTDLDKQIDVYMKELGLVF, MGSDKIHHHHHHMSEITTLQPSLLWKWFDQICAIPHPSHYEDTLANFIVNWAKEKHFFVERDEVGNVLIRKPATKGMENHTPVVLQAHLDMVPQANEGNPHDFTKDPIQPYIDGEWVKARGTTLGSDNGIGLASTLAVLESNDLAHPPLEVLLTMTEETGMDGAKGLRHNWLQSEILINTDTEEIGEIYIGCAGGINANFEIPVQYETNTFEHSAQITLKGLRGGHSGGDIHTGRANAIKVLARVLAKLSQNQPHFALSEIRGGSIRNAIPREAAAVLAFNGDVKTIESAVENLAVVLKEELAIAEPNFTLFVESAEKAPTVFTAQSTQTVINALNVLPNGVIRNSDVVKNVVESSLSVGVLKTEGNVVKSTILVRSLIESGKYYVTEMLSSLAILANAKVEFSAPYPGWQPVNDSTILDVTRKHYAEVLGEQPVVKVIHAGLECGLLKEHYPNIEMISVGPTIRNAHSPDEKVEIATVQTYWDLLTRVLADIPAK, MGSDKIHHHHHHMSEQELSQLSGGMDDAAPCPWLKVEVHPAGDRQVVVAYGDIDVDTEAILQRALREALDHSVSGVNLDLGAVGFCDCAGLNVLLRMRRHALAHGKTLAVQATGPATGKLLTITGTLSLFDVTAGPGTRAKGRNPLPPEPHDPSRVDHIDGTGRGRDGTDLETDGTIDGTVVDLRIEVGQLRRAMQTRPVIDLARGVLMASFGLSAEDAWTVLVTVSQHTNTKLHQIAEDLVNTVQGAPLPEPLQRQLAEAVMPFSRVRNAGA, MGSDKIHHHHHHMSEQYKQPNTPEPYWRQSTPLPDFKPLQNDLLVDVVIVGGGITGITTAYLLQKRGKKVVILEADRLFNGTTGHTTAKITAQHGLIYDEFIQHFGEDKAKQYYDAQMEAKTFIKNTVQDLSIDCDFQEHDAYIYTNANRYLAKLEREMRAYEKLQINGSLIDSMPLQVPIKKAIVMKGQAQFHPIAYLMKLVQDFIDRGGLIFEHTVATDVDKGEHRTVLTRDGHKVTCDYVVESSHFPFFDRGFYFSRMYADRSYVLGLKVKEPYPGGMYLSAEDPPRSIRHASYQGEDLWLISGETHKTGQGMDTDYHYEALESFSREMFNVTDISYRWSAQDLVTLDRMPYIGPATSNDPHILVATGFRKWGMTNGTIAAHVITDLIIGQVNAYQKLFAPQRFVADPSLRKFFSYNVDVAKHLIDGKTEKGSRTPESLQKDEGDVVNVNGKRAGGYRDTDGALHLVDTTCTHMGCEVSWNHGDRTWDCPCHGSRFSYDGEVVEGPAKKPLKKIDHT, MGSDKIHHHHHHMSESYYGLLDEEKVFKDPVHRYIHVRDELIWALIGTKEFQRLRRVRQLGTTFLTFHGAEHTRFNHSLGVYEITRRIIEVFQGRPYWNEEERLLTLCAALLHDIGHGPFSHSFEKVFDTDHEEWTRRMIVGDTEIHNVLLKMGDDFPQKVADVIEKTYPNKLVTSIISSQIDADRMDYLQRDAYYTGVSYGHFDMERILRVMRPMEDQVVIKQSGMHAVEDYIMSRYQMYWQVYFHPVTRSAEVILSKVFKRVKDLYEQGYKFKQEPKHFYSLFEGNMSLDDYLRLDESITMYYFQIWQEEEDRILSDLCVRFINRQLFKYIEFNPNLQMNDWPRLQQLFAQAEIDPEYYLVVDSSSDLPYDFYRPGEEEERLPIHLIMPNGKLRELSRESDVVEAISGKKRTDHKLYFPMDCLTDQSDHKEIKQEILSLLFK, MGSDKIHHHHHHMSEVYRQNPKVEAIILAGSVARKLEDEHSDIELHILWSMPPEDEDRKGPINYIGGTILSYHPYEEEEWSETYLTKEGIKLEISNFLTETVEKVIEDVVVQYDISYEKQCIVSSIHDGASLYGEEKVHELKDRVLAYPEDLAKRMISENLWLSNRWHNREALLKRKDWLMLYDVICEAQRNIFGVLFGLNKMYVHHPAFKWMPYNVERMIIKPENLYERMTNTLIGKPEYSIQELGVLIEELLQLVEHHAPELHIAEQQKRIQYAK, MGSDKIHHHHHHMSFDLALFSSKLRRCREQFEKSLVEVTTATGIPENILAALENGERQPTGDEVLIFADYYLCDYQFFISNERVASFDQTETLFRRYGEEFSKEDRLAVQEFLFLCECEDFLLKLVQTHIYKPFSFIKRGNYYIGHGKEAAKALRKHLGYASNAVRMDVYEDFRSLGFHIFRRQLGNSNISGLFIKHPTAGKCILVNYSEDIYRQRFTAAHESAHGILDDEQEFVISLKTDKKNLVEVRANNFASDYLMPPEFLQKIPDSQTWTPEKAIEWANKLKVSTEALANALKSANFISENVEIQIKAVRVPRDLKVDPELPESLSFGSRQRREKLLKRGLSNFYVGLCFDVYEQGFISAGRVAEMLLVSKYELTEIASIYGRTIRYGD, MGSDKIHHHHHHMSFDPFGDFETTGYLRNSLGLKDPAEVKENEHFSFEMGLDEALSYLERTKNLNYQALLQVHRLLFEKFYPWAGRDRLELVPHLSVWKGPKGAPRRTFFESPAMIERAVDYALSLASKKQGFMQKPGEVMGLLCFAHPFLDGNGRSILLFYMELSYRAGFAIDWASTRKDDYLQALDDEIHNPGKGHLDRYLVPFVVPIHSRDQWPEIIGQINGLDGMDGENITYENLDDPEVQKVYAAYHAEHPYPAKDGTPDSEP, MGSDKIHHHHHHMSFNIGLSGIQAASSGLNVTGNNIANAGTVGFKQSRAEFADVYAASVLGSGSNPQGSGVLLSDVSQMFKQGNIDSTNSVLDLAINGNGFFVTSNNGAISYTRAGYFNTDKQDFIVDNNGYRLQGYAVGPNGQLQNGVVTDLKVERANQAPQATSSIQQSYNLNSTLKPPTVTPFDPSDAATYNSSSSLGIYDSQGNSHTMSQFFIKNEPDPNATPPIPENSWTMKVLIDGVNPLDPSNKTPMSFNVTFDASGQMTSVRAPDGSTSGPGFSIDATTNVIQFSPATGNPPTPGTGWIPAASDGKTPPTYAWNGATGAASGISFDMRKTTQYSTAFAQSNPIQDGYTTGQLAGLEIDDTGVIFARYTNGQSKVQGQVVLANFANIQGLTPIGKTSWVQSSESGEPAVGAPRSGTLGALQSGALEASNVDISNELVNLIVHQRNYQANAKTIQTEDAVTQTIINLR, MGSDKIHHHHHHMSGETFEFNIRHSGKVYPITLSTDATSADLKSKAEELTQVPSARQKYMVKGGLSGEESIKIYPLIKPGSTVMLLGTPDANLISKPAKKNNFIEDLAPEQQVQQFAQLPVGFKNMGNTCYLNATLQALYRVNDLRDMILNYNPSQGVSNSGAQDEEIHKQIVIEMKRCFENLQNKSFKSVLPIVLLNTLRKCYPQFAERDSQGGFYKQQDAEELFTQLFHSMSIVFGDKFSEDFRIQFKTTIKDTANDNDITVKENESDSKLQCHISGTTNFMRNGLLEGLNEKIEKRSDLTGANSIYSVEKKISRLPKFLTVQYVRFFWKRSTNKKSKILRKVVFPFQLDVADMLTPEYAAEKVKVRDELRKVEKEKNEKEREIKRRKFDPSSSENVMTPREQYETQVALNESEKDQWLEEYKKHFPPNLEKGENPSCVYNLIGVITHQGANSESGHYQAFIRDELDENKWYKFNDDKVSVVEKEKIESLAGGGESDSALILMYKGFGL, MGSDKIHHHHHHMSGHKCYPWDLQDRYAQDKSVVNKMQQKYWETKQAFIKATGKKEDEHVVASDADLDAKLELFHSIQRTCLDLSKAIVLYQKRICFLSQEENELGKFLRSQGFQDKTRAGKMMQATGKALCFSSQQRLALRNPLCRFHQEVETFRHRAISDTWLTVNRMEQCRTEYRGALLWMKDVSQELDPDLYKQMEKFRKVQTQVRLAKKNFDKLKMDVCQKVDLLGASRCNLLSHMLATYQTTLLHFWEKTSHTMAAIHESFKGYQPYEFTTLKSLQDPMKKLVEKEEKKKINQQESTDAAVQEPSQLISLEEENQRKESSSFKTEDGKSILSALDKGSTHTACSGPIDELLDMKSEEGACLGPVAGTPEPEGADKDDLLLLSEIFNASSLEEGEFSKEWAAVFGDGQVKEPVPTMALGEPDPKAQTGSGFLPSQLLDQNMKDLQASLQEPAKAASDLTAWFSLFADLDPLSNPDAVGKTDKEHELLNA, MGSDKIHHHHHHMSGIINNREYRQKVLKEIILELHNGKSVDEVRKRFQELIKGVSTKEISEMEAQLIKEGMKVEEIQRLCDVHAAVFKGSIDQIHHPEKEEGHPVSVLKKENEAVKNYIQSHLTPNLEEIKKSDSHSTRLKLMENISMLFDLDKHYSRKENLIFPYLEKYGITAPPKVMWGVDDEIREALKECKEVINSANKTPNEITEKVESTLKRIEEMIFKEESILLPMCIDTFSEDEWLDIESESDEIGYCLISPSEKWKPKRENVEEKEKSKLANENSEGYIKFDTGILRVNELSAILDTLPLDITFVDKDGTVKYFSGGSERIFARTRAVIGRKVQNCHPPASVHIVEKVVEDLKSGKKDHEDFWLHMGELYVFIRYYAVKDNKGEFIGVLEVTQNIKEIQEITGEKRLIE, MGSDKIHHHHHHMSGQLHKMWYFPHMNQHEATVTDGDELQQFIAEAIALVGGVRALASIAGVSERTVYAWKNGERFPSRTNLNRLSEHLEHLSRQGYSPSAPQPHWRALRERMPGSYAPQQPDDTDRLTEEFVFVDKAEARPSAGGGSLETSARAETRYAFRLDWVLQKTPTSEGLRMMEVAGRSMENTLHNGDLVLVNERDVHLVEDRVYVVRVHDEIYVKRFARTPGCYHFRGDNRELAYQDISIDPRDENLDWEVIGRVLWAGKEL
